# From patent US20180155451A1 (published 2018)
# B1: GpH7-B3 variant P271_01G/GpL16-k0 (antibody, human IgG1, kappa)
# heavy: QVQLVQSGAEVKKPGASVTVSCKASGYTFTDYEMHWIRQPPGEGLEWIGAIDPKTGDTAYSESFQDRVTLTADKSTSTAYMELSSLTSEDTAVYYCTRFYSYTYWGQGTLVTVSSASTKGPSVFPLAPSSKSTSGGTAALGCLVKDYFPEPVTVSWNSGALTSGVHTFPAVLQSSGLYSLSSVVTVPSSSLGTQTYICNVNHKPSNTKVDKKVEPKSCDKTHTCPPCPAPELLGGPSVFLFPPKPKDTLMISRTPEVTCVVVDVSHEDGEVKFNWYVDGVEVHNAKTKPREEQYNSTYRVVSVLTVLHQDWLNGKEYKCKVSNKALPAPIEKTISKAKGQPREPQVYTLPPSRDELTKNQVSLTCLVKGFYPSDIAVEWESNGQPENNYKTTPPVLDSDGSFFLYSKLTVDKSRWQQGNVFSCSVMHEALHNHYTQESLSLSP
# light: DIVMTQSPLSLPVTPGEPASISCQASESLVHSNRNTYLHWYLQKPGQSPQLLIYKVSNRFSGVPDRFSGSGSGTDFTLKISRVEAEDVGVYYCSQNTHVPPTFGQGTKVEIERTVAAPSVFIFPPSDEQLKSGTASVVCLLNNFYPREAKVQWKVDNALQSGNSQESVTEQDSKDSTYSLSSTLTLSKADYEKHKVYACEVTHQGLSSPVTKSFNRGEC
# notes: homodimerized antibody, mutation in both H chains; also called P271_01G Ho Ab
# B2: GpH7-B3 variant P271_18N/GpL16-k0 (antibody, human IgG1, kappa)
# heavy: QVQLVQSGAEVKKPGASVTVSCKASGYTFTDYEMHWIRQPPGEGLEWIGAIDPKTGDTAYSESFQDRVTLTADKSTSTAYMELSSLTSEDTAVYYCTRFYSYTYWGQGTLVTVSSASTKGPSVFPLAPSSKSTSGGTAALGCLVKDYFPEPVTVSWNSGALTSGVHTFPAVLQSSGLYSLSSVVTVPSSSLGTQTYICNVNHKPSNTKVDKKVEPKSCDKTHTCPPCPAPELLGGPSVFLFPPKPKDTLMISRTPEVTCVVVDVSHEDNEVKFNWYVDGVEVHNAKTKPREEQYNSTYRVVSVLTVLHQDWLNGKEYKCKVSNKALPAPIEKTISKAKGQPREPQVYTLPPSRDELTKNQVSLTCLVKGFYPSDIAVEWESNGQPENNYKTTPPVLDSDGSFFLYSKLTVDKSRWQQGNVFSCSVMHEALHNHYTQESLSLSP
# light: B1 light
# notes: homodimerized antibody, mutation in both H chains; also called P271_18N Ho Ab
# B3: GpH7-B3 variant S298_09D/GpL16-k0 (antibody, human IgG1, kappa)
# heavy: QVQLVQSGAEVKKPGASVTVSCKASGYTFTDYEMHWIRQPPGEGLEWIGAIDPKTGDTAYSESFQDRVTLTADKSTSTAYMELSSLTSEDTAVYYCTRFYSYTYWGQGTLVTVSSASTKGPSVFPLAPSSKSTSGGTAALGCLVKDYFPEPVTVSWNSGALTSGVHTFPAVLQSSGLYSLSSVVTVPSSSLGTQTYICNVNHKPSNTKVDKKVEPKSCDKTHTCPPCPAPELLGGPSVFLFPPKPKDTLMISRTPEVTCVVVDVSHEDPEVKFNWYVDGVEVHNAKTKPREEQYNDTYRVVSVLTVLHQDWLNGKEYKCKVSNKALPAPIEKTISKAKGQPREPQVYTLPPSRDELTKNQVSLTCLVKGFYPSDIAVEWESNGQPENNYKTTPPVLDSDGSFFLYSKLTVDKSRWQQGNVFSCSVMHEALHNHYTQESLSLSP
# light: B1 light
# notes: homodimerized antibody, mutation in both H chains; also called S298_09D Ho Ab
# B4: GpH7-B3 variant S267_18N/GpL16-k0 (antibody, human IgG1, kappa)
# heavy: not shown
# light: B1 light
# notes: homodimerized antibody, mutation in both H chains; also called S267_18N Ho Ab
# B5: GpH7-B3 variant S337_16H/GpL16-k0 (antibody, human IgG1, kappa)
# heavy: not shown
# light: B1 light
# notes: homodimerized antibody, mutation in both H chains; also called S337_16H Ho Ab
# B6: GpH7-B3 variant T335_02A/GpL16-k0 (antibody, human IgG1, kappa)
# heavy: not shown
# light: B1 light
# notes: homodimerized antibody, mutation in both H chains; also called T335_02A Ho Ab
# B7: GpH7-B3 variant Q295_10E/GpL16-k0 (antibody, human IgG1, kappa)
# heavy: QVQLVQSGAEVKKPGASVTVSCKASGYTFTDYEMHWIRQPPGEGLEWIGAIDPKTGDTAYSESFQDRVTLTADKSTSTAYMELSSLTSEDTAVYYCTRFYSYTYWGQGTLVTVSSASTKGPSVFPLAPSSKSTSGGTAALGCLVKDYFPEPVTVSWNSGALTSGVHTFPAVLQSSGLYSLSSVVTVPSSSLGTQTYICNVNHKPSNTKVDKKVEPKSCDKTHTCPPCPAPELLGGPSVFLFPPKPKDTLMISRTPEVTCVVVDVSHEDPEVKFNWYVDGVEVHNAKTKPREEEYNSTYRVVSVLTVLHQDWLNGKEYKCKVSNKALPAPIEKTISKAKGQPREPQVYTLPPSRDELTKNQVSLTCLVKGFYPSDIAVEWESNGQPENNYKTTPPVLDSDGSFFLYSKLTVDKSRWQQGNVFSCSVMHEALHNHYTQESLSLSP
# light: B1 light
# notes: homodimerized antibody, mutation in both H chains; also called Q295_10E Ho Ab
# B8: GpH7-B3 variant S337_14T/GpL16-k0 (antibody, human IgG1, kappa)
# heavy: not shown
# light: B1 light
# notes: homodimerized antibody, mutation in both H chains; also called S337_14T Ho Ab
# B9: GpH7-B3 variant S267_19Q/GpL16-k0 (antibody, human IgG1, kappa)
# heavy: not shown
# light: B1 light
# notes: homodimerized antibody, mutation in both H chains; also called S267_19Q Ho Ab
# B10: GpH7-B3 variant S267_14T/GpL16-k0 (antibody, human IgG1, kappa)
# heavy: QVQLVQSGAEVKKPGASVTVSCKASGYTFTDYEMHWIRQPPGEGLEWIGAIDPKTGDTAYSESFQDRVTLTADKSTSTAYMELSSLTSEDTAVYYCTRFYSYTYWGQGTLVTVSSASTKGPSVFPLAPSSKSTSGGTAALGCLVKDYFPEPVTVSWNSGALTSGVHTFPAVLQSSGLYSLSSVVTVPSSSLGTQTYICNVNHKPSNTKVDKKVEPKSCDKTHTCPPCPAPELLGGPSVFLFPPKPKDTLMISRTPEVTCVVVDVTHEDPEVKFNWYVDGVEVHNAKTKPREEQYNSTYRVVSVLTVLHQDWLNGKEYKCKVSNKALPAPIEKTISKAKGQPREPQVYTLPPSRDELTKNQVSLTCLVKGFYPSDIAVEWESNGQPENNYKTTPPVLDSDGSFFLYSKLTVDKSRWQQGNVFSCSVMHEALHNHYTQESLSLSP
# light: B1 light
# notes: homodimerized antibody, mutation in both H chains; also called S267_14T Ho Ab
# B11: GpH7-B3 variant S337_18N/GpL16-k0 (antibody, human IgG1, kappa)
# heavy: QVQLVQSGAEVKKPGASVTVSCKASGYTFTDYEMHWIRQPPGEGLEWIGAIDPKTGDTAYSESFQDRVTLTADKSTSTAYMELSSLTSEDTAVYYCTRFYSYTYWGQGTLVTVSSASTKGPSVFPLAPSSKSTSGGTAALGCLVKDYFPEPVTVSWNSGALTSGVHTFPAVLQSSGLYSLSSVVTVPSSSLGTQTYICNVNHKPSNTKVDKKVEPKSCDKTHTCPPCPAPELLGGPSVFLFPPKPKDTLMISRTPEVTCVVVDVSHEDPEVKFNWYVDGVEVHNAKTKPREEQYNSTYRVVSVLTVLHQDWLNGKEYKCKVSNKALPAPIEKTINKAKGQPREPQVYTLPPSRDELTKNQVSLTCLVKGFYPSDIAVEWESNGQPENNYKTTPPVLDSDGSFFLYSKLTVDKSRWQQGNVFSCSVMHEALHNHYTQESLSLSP
# light: B1 light
# notes: homodimerized antibody, mutation in both H chains; also called S337_18N Ho Ab
# B12: GpH7-B3 variant T335_13S/GpL16-k0 (antibody, human IgG1, kappa)
# heavy: not shown
# light: B1 light
# notes: homodimerized antibody, mutation in both H chains; also called T335_13S Ho Ab
# B13: GpH7-B3 variant S239_10E/GpL16-k0 (antibody, human IgG1, kappa)
# heavy: not shown
# light: B1 light
# notes: homodimerized antibody, mutation in both H chains; also called S239_10E Ho Ab
# B14: GpH7-B3 variant P271_10E/GpL16-k0 (antibody, human IgG1, kappa)
# heavy: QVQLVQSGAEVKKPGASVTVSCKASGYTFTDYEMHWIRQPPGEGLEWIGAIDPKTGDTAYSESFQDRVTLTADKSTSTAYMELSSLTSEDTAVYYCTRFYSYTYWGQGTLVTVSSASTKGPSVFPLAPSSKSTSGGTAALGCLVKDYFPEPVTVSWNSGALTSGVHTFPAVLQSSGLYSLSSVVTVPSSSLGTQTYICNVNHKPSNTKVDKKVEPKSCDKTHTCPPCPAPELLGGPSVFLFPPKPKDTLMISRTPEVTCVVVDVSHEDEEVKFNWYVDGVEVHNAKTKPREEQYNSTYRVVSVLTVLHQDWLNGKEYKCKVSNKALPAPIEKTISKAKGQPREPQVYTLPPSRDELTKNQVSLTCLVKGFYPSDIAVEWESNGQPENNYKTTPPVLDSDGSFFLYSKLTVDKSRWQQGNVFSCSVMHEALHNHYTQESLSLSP
# light: B1 light
# notes: homodimerized antibody, mutation in both H chains; also called P271_10E Ho Ab
# B15: GpH7-B3 variant S337_11K/GpL16-k0 (antibody, human IgG1, kappa)
# heavy: not shown
# light: B1 light
# notes: homodimerized antibody, mutation in both H chains; also called S337_11K Ho Ab
# B16: GpH7-B3 variant P271_08L/GpL16-k0 (antibody, human IgG1, kappa)
# heavy: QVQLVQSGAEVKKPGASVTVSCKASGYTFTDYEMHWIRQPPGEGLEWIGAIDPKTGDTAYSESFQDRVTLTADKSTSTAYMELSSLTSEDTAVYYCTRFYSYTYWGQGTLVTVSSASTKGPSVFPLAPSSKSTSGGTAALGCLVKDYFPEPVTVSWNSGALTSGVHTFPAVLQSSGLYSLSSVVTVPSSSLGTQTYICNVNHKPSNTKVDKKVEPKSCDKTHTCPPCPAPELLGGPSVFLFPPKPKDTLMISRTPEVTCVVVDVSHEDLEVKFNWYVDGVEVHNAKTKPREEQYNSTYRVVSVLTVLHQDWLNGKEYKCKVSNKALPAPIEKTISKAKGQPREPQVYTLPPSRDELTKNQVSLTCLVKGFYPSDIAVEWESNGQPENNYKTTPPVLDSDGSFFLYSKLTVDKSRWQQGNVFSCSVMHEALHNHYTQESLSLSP
# light: B1 light
# notes: homodimerized antibody, mutation in both H chains; also called P271_08L Ho Ab
# B17: GpH7-B3 variant S324_09D/GpL16-k0 (antibody, human IgG1, kappa)
# heavy: not shown
# light: B1 light
# notes: homodimerized antibody, mutation in both H chains; also called S324_09D Ho Ab
# B18: GpH7-B3 variant P271_19Q/GpL16-k0 (antibody, human IgG1, kappa)
# heavy: not shown
# light: B1 light
# notes: homodimerized antibody, mutation in both H chains; also called P271_19Q Ho Ab
# B19: GpH7-B3 variant T335_01G/GpL16-k0 (antibody, human IgG1, kappa)
# heavy: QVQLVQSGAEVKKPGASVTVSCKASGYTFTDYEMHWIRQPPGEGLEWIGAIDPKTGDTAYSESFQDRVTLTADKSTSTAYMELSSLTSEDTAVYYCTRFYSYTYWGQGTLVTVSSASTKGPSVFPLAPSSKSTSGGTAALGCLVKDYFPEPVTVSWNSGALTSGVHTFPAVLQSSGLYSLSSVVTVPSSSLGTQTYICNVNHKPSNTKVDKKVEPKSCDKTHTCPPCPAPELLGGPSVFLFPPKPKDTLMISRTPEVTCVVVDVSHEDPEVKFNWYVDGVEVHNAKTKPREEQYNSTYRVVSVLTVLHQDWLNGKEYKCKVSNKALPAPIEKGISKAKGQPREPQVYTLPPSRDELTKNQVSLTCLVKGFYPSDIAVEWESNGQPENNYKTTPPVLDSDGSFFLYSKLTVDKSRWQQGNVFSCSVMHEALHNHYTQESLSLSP
# light: B1 light
# notes: homodimerized antibody, mutation in both H chains; also called T335_01G Ho Ab
# B20: GpH7-B3 variant Q295_12R/GpL16-k0 (antibody, human IgG1, kappa)
# heavy: not shown
# light: B1 light
# notes: homodimerized antibody, mutation in both H chains; also called Q295_12R Ho Ab
# B21: GpH7-B3 variant S267_06M/GpL16-k0 (antibody, human IgG1, kappa)
# heavy: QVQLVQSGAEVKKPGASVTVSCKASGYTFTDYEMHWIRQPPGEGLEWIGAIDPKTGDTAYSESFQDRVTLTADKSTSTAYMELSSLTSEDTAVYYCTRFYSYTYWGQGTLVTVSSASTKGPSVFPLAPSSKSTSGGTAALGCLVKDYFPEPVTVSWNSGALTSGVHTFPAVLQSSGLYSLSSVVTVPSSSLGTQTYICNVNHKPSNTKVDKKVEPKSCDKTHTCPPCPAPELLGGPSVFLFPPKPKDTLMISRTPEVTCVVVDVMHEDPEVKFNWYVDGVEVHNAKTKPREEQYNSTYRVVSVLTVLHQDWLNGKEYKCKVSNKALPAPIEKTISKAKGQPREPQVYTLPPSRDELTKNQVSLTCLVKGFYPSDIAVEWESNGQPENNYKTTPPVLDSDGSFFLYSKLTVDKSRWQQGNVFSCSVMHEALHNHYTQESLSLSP
# light: B1 light
# notes: homodimerized antibody, mutation in both H chains; also called S267_06M Ho Ab
# B22: GpH7-B3 variant S267_10E/GpL16-k0 (antibody, human IgG1, kappa)
# heavy: not shown
# light: B1 light
# notes: homodimerized antibody, mutation in both H chains; also called S267_10E Ho Ab
# B23: GpH7-B3 variant S324_10E/GpL16-k0 (antibody, human IgG1, kappa)
# heavy: not shown
# light: B1 light
# notes: homodimerized antibody, mutation in both H chains; also called S324_10E Ho Ab
# Target: T1, FcγRIa extracellular domain with C-terminal His tag (human, UniProt P12314 16-292)
# T1 construct: extracellular domain; soluble analyte in Biacore; also called FcgRI; CD64
# Test: SPR (Biacore), relative FcγRIa binding, GpH7-B3/GpL16-k0 (HoCon Ab) = 100
# T1 sequence (P12314 16-292): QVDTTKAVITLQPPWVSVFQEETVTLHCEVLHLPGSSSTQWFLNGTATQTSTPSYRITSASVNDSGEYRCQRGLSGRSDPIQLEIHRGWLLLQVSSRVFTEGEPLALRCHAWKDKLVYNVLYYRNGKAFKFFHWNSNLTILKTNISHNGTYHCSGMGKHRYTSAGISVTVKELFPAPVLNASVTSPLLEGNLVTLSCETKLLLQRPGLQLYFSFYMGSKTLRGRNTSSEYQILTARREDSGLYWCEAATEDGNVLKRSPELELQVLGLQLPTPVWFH
row,Ho/Con_1a,Binder
1,106 % of control,B1
2,103 % of control,B2
3,106 % of control,B3
4,107 % of control,B4
5,105 % of control,B5
6,105 % of control,B6
7,105 % of control,B7
8,106 % of control,B8
9,104 % of control,B9
10,107 % of control,B10
11,106 % of control,B11
12,105 % of control,B12
13,106 % of control,B13
14,103 % of control,B14
15,105 % of control,B15
16,103 % of control,B16
17,106 % of control,B17
18,104 % of control,B18
19,106 % of control,B19
20,101 % of control,B20
21,106 % of control,B21
22,107 % of control,B22
23,106 % of control,B23
